The numbers were not newly measured in paper PMC11386291, which cites them from elsewhere.

The target in series [1] is MKK4 D-motif D-motif (Homo sapiens) (UniProt P45985).
For series [2], the target named is MKK6 D-motif D-motif (Homo sapiens) (UniProt P52564).

One may read the Kd as the constant that tells how readily two partners part at equilibrium. As for JNK1 (from UniProt P45983), in series [1], the Kd is 3.5 µM.
Regarding p38α (from UniProt Q16539), the dissociation constant Kd in series [2] was 7.5 µM.
